Measurements: US20120231021A1 (GREEN CROSS, published 2012)
Where a chain is given by its changes, count along the chain named.

B1: human antibody ER2 (antibody, V domains shown)
VH: EVQLVESGGGVVQPGGSLRLSCAASGFTFSDYDMSWIRQAPGKGLEWVSGILGGSERSYYRDSVKGRFTISRDNSRKTLYLQMNSLRAEDTAVYYCARHGSPGYTLYAWDYWGQGTTVTVSS
VL: DIVMTQTPLSLPVTPGEPASISCRSNQDLTHSNGNTYLEWYLQKPGQSPRLLIYKVSNRFSGVPDRFSGSGAGTDFTLRISRVEAEDVGVYYCMQGTHWPWTFGQGTKVDIKR
notes: also called ER2 antibody
B2: human antibody ER79 (antibody, V domains shown)
VH: B1 VH
VL: B1 VL with N26S, D28S, L29V, T30D, H31M, S32G, N33I, T36N
notes: also called ER79 antibody

Columns and labels:
[1] = target: T1, epidermal growth factor receptor (EGFR) on tumor cells (A431 epidermoid carcinoma cells); MDA-MB-231 breast … (UniProt P00533 25-1210, limits assumed); assay: flow cytometry on A431 cells, 10 µg antibody
T1 construct: whole, on cells; Endogenous receptor of the cell lines; also called EGFR overexpressed in a cancer cell line (A431); EGFR in A431 cells

[2] = target: T2, epidermal growth factor receptor (EGFR) (Sigma, U.S), purified protein (UniProt P00533 25-1210, limits assumed); assay: competitive ELISA, EGFR-coated plate with soluble EGFR as competitor (FIG. 9)
T2 construct: also called EGFR antigen
Experimental: 100 μL of EGFR (Sigma, U.S) at a 2 μg/mL dilution in PBS was added to each well of a plate and incubated overnight at 4° C. Each well was washed once with PBST, 300 μL of 1% BSA-PBS solution was added to each well, and stored for 1 hour at room temperature.
2 μg of EGFR was diluted by a two-fold and 10 μL of the diluted EGFR was added to each well of the plate. Then, 90 μL of the antibody diluted to the optimum concentration determined in (1) was added to each well, incubated for 2 hours at room temperature, and washed 4 times with PBST.

Binder	binding result [1]	fold lower affinity than C225 [2]	percent of affinity relative to C225 and M96 [2]
B1	binds	–	–
B2	–	2 times	~63%
